B1: soluble alkaline phosphatase-FLRT3 ectodomain fusion protein (AP-FLRT3ΔTM) (domain or fragment, Xenopus, UniProt Q70AK3 29-527, looked up)
chain: KPCPSVCRCDAGFIYCNDRDLTSIPSGIPDDATTLYLQNNQINNAGIPSDLKGLDKVERIYLYRNSLDEFPINLPKNVKELHLQENNIRTITYDALLQIPFIEELHLDDNSVSAVSIEDGAFRDNIFLRLLFLSRNHLSTIPWGLPKTIEELRLDDNRISTISEISLQDLTNLKRLVLDGNLLNNNGLGERVFMNLINLTELSLVRNSLTSPPANLPGTSLRKLYLQENHMNYVPPNSFADLTQLYRLDMSNNNLTALPQGIFDDLDNLTQLFLRNNPWYCGCKMKWVRDWLQSLPSKVNVRGLMCQAPERVRGMTIKDLNKELFDCKDRIGSNTIHVTTTMLNSLLPAQGQWPVPVTKQPEIRPPDINKIFRTTPIPVKKIITIQVKSITTETIYISWKVALPMTALRLSWQLGHSPVFGSITETIVTGDRAEYLLTALEPESPYRICMVPMETGNIYLSDETPVCIETETAPLKMYNPTTTLNREQEKEPYKNSSLP
notes: FLRT3, Xenopus, ectodomain (ΔTM); also called AP-tagged FLRT3ΔTM; source: conditioned medium, concentrated
B2: Unc5D (splice variant of the mouse Unc5D gene) (receptor)
chain: ARGADGSEILPDSIPSAPGTLPHFIEEPEDAYIIKSNPIALRCKARPAMQIFFKCNGEWVHQNEHVSEESLDESSGLKVREVFINVTRQQVEDFHGPEDYWCQCVAWSHLGTSKSRKASVRIAYLRKNFEQDPQGREVPIEGMIVLHCRPPEGVPAAEVEWLKNEEPIDSEQDENIDTRADHNLIIRQARLSDSGNYTCMAANIVAKRRSLSATVVVYVNGGWSSWTEWSACNVRCGRGWQKRSRTCTNPAPLNGGAFCEGMSVQKITCTALCPVDGSWEVWSEWSVCSPECEHLRIRECTAPPPRNGGKFCEGLSQESENCTDGLCILDKKPLHEIKPQSIENASDIALYSGLGAAVVAVAVLVIGVTLYRRSHSDYGVDVIDSSALTGNSLLLNPAMQPDLTVSRTYSGPICLQDPLDKELMTESSLFNPLSDIKVKVQSSFMVSLGVSERAEYHGKNHSGTFPHGNNRGFSTIHPRNKTPYIQNLSSLPTRTELRTTGVFGHLGGRLVMPNTGVSLLIPHGAIPEENSWEIYMSINQGEPSLQSDGSEVLLSPEVTCGPPDMLVTTPFALTIPHCADVSSEHWNIHLKKRTQQGKWEEVMSVEDESTSCYCLLDPFACHVLLDSFGTYALTGEPITDCAVKQLKVAVFGCMSCNSLDYNLRVYCVDNTPCAFQEVISDERHQGGQLLEEPKLLHFKGNTFSLQVSVLDIPPFLWRIKPFTACQEVPFSRVWSSNRQPLHCAFSLERYTPTTTQLSCKICIRQLKGHEQILQVQTSILESERETITFFAQEDSTFPAQTGPKAFKIPYSIRQRICATFDTPNAKGKDWQMLAQKNSINRNLSYFATQSSPSAVILNLWEARHQQDGDLDSLACALEEIGRTHTKLSNITEPQIDDADFNYSRQNGL

What was measured:
Xenopus Unc5B = molecular target: T1, Xenopus Unc5B (Xenopus, UniProt Q8JGT4 31-943); experiment: equilibrium binding of an alkaline phosphatase fusion protein to transfected cells, binding curves and Scatchard analysis; different amounts of concentrated AP-FLRT3ΔTM conditioned medium on transfected cells, 1 h at RT; washed with PBS containing 0.2 M NaCl; cells lysed; AP activity read at 405 nm, normalised to cell number; conditions: partners not purified
T1 construct: Netrin receptor Unc5B, Xenopus; Constructs are in Text S1; source: HEK293T, transfected, on cells
T1 sequence (Q8JGT4 31-943): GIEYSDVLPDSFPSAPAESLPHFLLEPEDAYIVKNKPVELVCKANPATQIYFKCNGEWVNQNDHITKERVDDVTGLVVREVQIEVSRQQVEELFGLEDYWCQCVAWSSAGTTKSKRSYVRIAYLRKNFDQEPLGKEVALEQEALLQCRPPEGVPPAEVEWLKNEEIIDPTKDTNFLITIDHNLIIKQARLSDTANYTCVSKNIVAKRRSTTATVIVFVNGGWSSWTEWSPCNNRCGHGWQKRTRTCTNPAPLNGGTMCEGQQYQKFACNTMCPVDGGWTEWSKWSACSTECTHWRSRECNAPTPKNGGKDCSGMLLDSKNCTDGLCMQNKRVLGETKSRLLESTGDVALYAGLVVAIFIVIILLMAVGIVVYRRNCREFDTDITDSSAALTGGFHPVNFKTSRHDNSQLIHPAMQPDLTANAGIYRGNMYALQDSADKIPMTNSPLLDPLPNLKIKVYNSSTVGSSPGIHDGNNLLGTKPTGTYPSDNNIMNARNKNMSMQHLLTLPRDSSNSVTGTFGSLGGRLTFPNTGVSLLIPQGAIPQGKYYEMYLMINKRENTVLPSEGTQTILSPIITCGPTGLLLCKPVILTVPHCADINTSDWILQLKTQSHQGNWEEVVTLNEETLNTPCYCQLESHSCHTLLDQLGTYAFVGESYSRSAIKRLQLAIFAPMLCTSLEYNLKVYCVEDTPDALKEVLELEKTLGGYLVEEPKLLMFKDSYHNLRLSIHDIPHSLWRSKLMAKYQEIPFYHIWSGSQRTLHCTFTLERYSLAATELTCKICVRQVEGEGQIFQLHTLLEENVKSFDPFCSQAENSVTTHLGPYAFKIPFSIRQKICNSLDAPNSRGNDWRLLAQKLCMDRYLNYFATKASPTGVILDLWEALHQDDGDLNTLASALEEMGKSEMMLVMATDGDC

[1] = molecular target: B1; experiment: as above; conditions: partners not purified

Kd (Xenopus Unc5B) [nM] | Kd [1] [nM] | Binder
50 | – | B1
– | 26 | B2

Reference: article PMC2683942, “Unc5B Interacts with FLRT3 and Rnd1 to Modulate Cell Adhesion in Xenopus Embryos” (PLoS ONE, 2009)
